Data taken from patent publication US6946588B2, “Nucleic acid encoding a modified threonine deaminase and methods of use” (Monsanto Technology LLC, priority 1996, dated 2005).

Tests used:
E. coli DH5α cells = assay: PHA production by transformed E. coli DH5α on glucose and propionate (GC analysis); type: cell-based; details: Set 2 versus Set 1
Description: E. coli DH5α cells contining both sets of plasmids expressing all of the required PHA biosynthesis enzymes were grown on 50 ml of LB broth containing all three antibiotics supplemented with 0.75% glucose and 0.15% propionate. The tac promoters were induced with IPTG at a final concentration of 0.5 mM. Nalidixic acid was added to a final concentration of 60 μg/ml. The cells were grown under antibiotic selection (see above) for 24 hours and assayed for the presence of PHA polymer. Cells were centrifuged at 7,000 rpm for 20 min., washed with 25 ml methanol, recentrifuged, washed with 15 ml hexane, and recentrifuged. Cell pellets were dried under N2 for two hours, and the dry cell weights determined. 6.5 ml of chloroform were added to extract the PHA at 100° C. for one hour. The solution was cooled and filtered through a PTFE syringe filter (13 mm diameter, 0.45 μm pore). The PHA was precipitated by the addition of 50 ml of methanol, centrifuged, and washed with hexane. The polymer was dried at 70° C. for two hours, and polymer weight was determined. Methanolysis was performed by dissolving 3-5 mg of PHA sample by the addition of 1 ml of CHCl3, with methyl benzoate as an internal standard for normalization of the data. […] The solution was then analyzed by gas chromatography as described in the section entitled “In vivo Analysis of Cloned E. coli ilvA Genes”.

[1] = Storage stability of purified BktB; type: physicochemical; details: 10 mM Tris-HCl, pH 7.8, 1 mM DTT, 50% glycerol at −20° C.
Description: Purified BktB protein was prepared by growing E. coli EE36 transformed with pMON25754 in LB broth containing ampicillin (100μg/ml) overnight at 37° C. Cells were then harvested by centrifugation, and the pellet was resuspended in 50 mM KPi and 5% glycerol, sonicated, and the sonicate centrifuged to remove cellular debris. The cell extract was desalted using a PD-10 column (Pharmacia), and proteins resolved using a Pharmacia FPLC system and MonoQ anion-exchange column (Pharmacia). Buffer A was 10 mM Tris buffer, pH 7.8, plus 1 mM DTT; buffer B was buffer A plus 1 M KCl. The gradient was 0 to 10% B in 10 min, then to 35% B in 40 min. The flow rate was 1 ml/min, and the resolved proteins were collected at the rate of 1 ml/fraction. The BktB protein was found in fractions 20 to 27, with the maximum activity peak at fraction 23. […] The enzyme was stored in 10 mM Tris-HCl, pH 7.8, 1 mM DTT, 50% glycerol at −20° C.

[2] = test system: A. eutrophus PhbA and BktB β-ketothiolases; assay: β-Ketothiolase condensation assay with 1-14C-acetyl-CoA (PhbA, BktB); type: biochemical; details: 0.30 mM acetyl-CoA
From the text: As noted above, A. eutrophus can produce P(3HB-co-3HV) copolymer when provided with an appropriate C5 precursor. […] One of these β-ketothiolases, designated BktB herein, was encoded on plasmid pBK6. A. eutrophus BktB was obtained from E. coli DH5α transformed with plasmid pMON25754. pMON25754 was produced from the A. eutrophus pBK6 clone (Slater et al., 1988) by deleting a 5.0 kb XhoI fragment (there is an additional XhoI site approximately 5.0 kb 5′ to the XhoI site shown in FIG. 1 of Slater et al.). The pBK6 clone was produced by Slater et al. (1988) from A. eutrophus H16, i.e., ATCC accession number 17699, which is publicly available from the American Type Culture Collection, 12301 Parklawn Drive, Rockville, Md. 20852. BktB was overexpressed from its native promoter on the high copy plasmid pMON25754 by growing the cells overnight at 37° C. to stationary phase in LB broth containing ampicillin (100 μg/ml). A. eutrophus PhbA was obtained from E. coli DH5α transformed with pMON25636 (FIG. 20) by growing the cells at 37° C. in LB broth containing ampicillin (100 μg/ml) to early log phase and then inducing with IPTG. Cells were harvested after two hours of further growth.
The activity of β-ketothiolases can be assayed in both the condensation and thiolysis directions. However, condensation activity for products that are the result of a mixed condensation of acetyl-CoA and a longer chain acyl-CoA are difficult to measure. This is due to the difficulty in distinguishing between acetoacetyl-CoA, the product of condensing two acetyl-CoA molecules, and the mixed condensation reaction product, both of which form simultaneously. To date, condensation assays have been spectrophotometrically-based, but these are valid only when there is a single acyl-CoA substrate present (i.e., acetyl-CoA) since they cannot discriminate between the products formed. The assay described below represents the first reported assay that permits complete quantitation of all condensation products regardless of the nature of starting substrates.
β-ketothiolase assays designed to measure the condensation activity with acetyl-CoA plus either propionyl-CoA or butyryl-CoA were performed using 1-^14C-labelled acetyl-CoA. Since the equilibrium for the reaction lies heavily toward the starting acyl-CoAs rather than the condensed β-ketoacyl-CoA product, the latter was “pulled” to the corresponding β-hydroxyacyl-CoA using NADH and β-ketoacyl-CoA dehydrogenase. In addition, to avoid the strong feedback inhibition of β-ketothiolase by free CoA, each assay solution contained 5,5′-dithio-bis(2-nitrobenzoic acid) (DTNB) to trap chemically the free CoA produced by the reaction.
The condensation assay mixture (0.5 ml final volume) contained 100 mM KPi, pH 7.8, 0.5 mM NADH, 0.30 mM 1-^14C-acetyl-CoA (0.15 μCi), 5 units β-ketoacyl-CoA dehydrogenase, 0.5 mM DTNB, and variable propionyl- or butyryl-CoA as indicated in Table 5. The reaction was initiated by the addition of β-ketothiolase. Following 20 minutes at 30° C., each reaction mixture was quenched by the addition of 25 μl of 10% formic acid. Thirty μl of 25% H2SO4 were added to 200 μl of quenched reaction mix; this mixture was then incubated at 70° C. for 24 hours to hydrolyze all CoA thioesters to their free acids. Sixty μl of 5 M sodium formate were added to the sample to neutralize the pH, followed by analysis of a 130 μl aliquot using C18-reverse-phase HPLC (0.5×25 cm column). Detection and quantitation were carried out by monitoring flow-through with a Radiomatic flow detector. A gradient elution was employed using aqueous 1% acetic acid (solvent A) and acetonitrile (solvent B). […]

B1: BktB: A. eutrophus β-ketothiolase encoded on pBK6, amino acid sequence SEQ ID NO:11 (protein, listed as Alcaligenes eutrophus)
chain: MTREVVVVSGVRTAIGTFGGSLKDVAPAELGALVVREALARAQVSGDDVGHVVFGNVIQTEPRDMYLGRVAAVNGGVTINAPALTVNRLCGSGLQAIVSAAQTILLGDTDVAIGGGAESMSRAPYLAPAARWGARMGDAGLVDMMLGALHDPFHRIHMGVTAENVAKEYDISRAQQDEAALESHRRASAAIKAGYFKDQIVPVVSKGRKGDVTFDTDEHVRHDATIDDMTKLRPVFVKENGTVTAGNASGLNDAAAAVVMMERAEAERRGLKPLARLVSYGHAGVDPKAMGIGPVPATKIALERAGLQVSDLDVIEANEAFAAQACAVTKALGLDPAKVNPNGSGISLGHPIGATGALITVKALHELNRVQGRYALVTMCIGGGQGIAAIFERI
Which “greater percentage of the C5 monomer than cells expressing the PhbA β-ketothiolase” value (E. coli DH5α cells) does the source give for B1 here?
Its value is “five-to-six-fold”.

And the “stability of activity on storage” value [1]?
Its value is “Activity remained constant for a minimum of two months”.

And the “% Turnover C4 Product” value ([2]; butyryl-CoA 0.6 mM)?
Its value is 1.0%.

And the “% Turnover C6 Product” value ([2]; butyryl-CoA 0.6 mM)?
Its value is 4.9%.

And the “% Turnover C4 Product” value ([2]; butyryl-CoA 1.2 mM)?
The value was 0.6%.

What about the “% Turnover C6 Product” value ([2]; butyryl-CoA 1.2 mM) of the same molecule?
The value was 7.3%.

And the “% Turnover C4 Product” value ([2]; butyryl-CoA 2.4 mM)?
The value was 0.4%.

What about the “% Turnover C6 Product” value ([2]; butyryl-CoA 2.4 mM) of the same molecule?
The value was 7.9%.

What about the “% Turnover C4 Product” value ([2]; propionyl-CoA 0 mM) of the same molecule?
The value was 4.2%.

And the “% Turnover C4 Product” value ([2]; propionyl-CoA 0.6 mM)?
The value was 1.8%.

What about the “% Turnover C5 Product” value ([2]; propionyl-CoA 0.6 mM) of the same molecule?
The value was 13.2%.

And the “% Turnover C4 Product” value ([2]; propionyl-CoA 1.2 mM)?
The value was 1.0%.

And the “% Turnover C5 Product” value ([2]; propionyl-CoA 1.2 mM)?
The value was 15.6%.

What about the “% Turnover C4 Product” value ([2]; propionyl-CoA 2.4 mM) of the same molecule?
The value was 0.7%.

What about the “% Turnover C5 Product” value ([2]; propionyl-CoA 2.4 mM) of the same molecule?
The value was 17.8%.
